According to paper PMC10119177 (2023):

target: recombinant IgI3 domain of the S. pyogenes R28 protein (R28-IgI3), wildtype (S. pyogenes) (UniProt Q9XDB6); experiment: ITC; iTC200, 25 °C, 16 injections of 2.42 µl, 30 mM Tris-HCl, 150 mM NaCl, pH 7.5, 750 rpm, in duplicate; 500 µM rCEACAM-N domains in the syringe, 50 µM rR28-IgI3 (methods)

Substance | Kd
rCEACAM1-N N97A (from UniProt P13688 34-141) (domain or fragment) | 210 nM
rCEACAM1-N Q44A (from UniProt P13688 34-141) (domain or fragment) | 920 nM
rCEACAM1-N Q89A (from UniProt P13688 34-141) (domain or fragment) | 687 nM
rCEACAM1-N V96A (from UniProt P13688 34-141) (domain or fragment) | 116 nM
